Assay results as given in patent US20220242962A1 (APTEVO RESEARCH AND DEVELOPMENT, published 2022).
Numbering of substitutions follows the chain as printed. In names and notes the source's numbering stands. Read-outs that look alike come from different tables or passages of the source.

Columns and labels:
Full-length Human 4-1BB [1] = target: T1, Full-length Human 4-1BB (human, UniProt Q07011 24-255); assay: flow cytometry, Jurkat cells expressing human 4-1BB
T1 construct: also called FOB005; CD137
Method: (§1) FIGS. 12A-12D show the binding of anti-4-1BB x anti-OX40 constructs, with additional humanization in 4-1BB and altered orientations of binding domains, human (12A) or cynomolgus (12C) 4-1BB-expressing Jurkat cells or human (12B) or cynomolgus (12D) OX40-expressing CHOK1SV cells. Serial dilutions of ADAPTIR™ constructs were incubated with transfected cells and subsequently labelled with a fluorescently-conjugated goat-a-human Fc secondary antibody. […] (See Example 19.)
(§2) Binding studies were performed using the flow cytometry-based staining procedures described above.

Full-length Cyno 4-1BB [2] = target: T2, Full-length Cyno 4-1BB (cynomolgus monkey, UniProt Q07011 24-255 (human entry)); assay: flow cytometry on Jurkat cells transfected with cynomolgus 4-1BB, goat anti-human Fc secondary antibody, MFI (Mean)
T2 construct: on Jurkat or CHO cells; also called FOB006; cynomolgus 4-1BB
T2 chain: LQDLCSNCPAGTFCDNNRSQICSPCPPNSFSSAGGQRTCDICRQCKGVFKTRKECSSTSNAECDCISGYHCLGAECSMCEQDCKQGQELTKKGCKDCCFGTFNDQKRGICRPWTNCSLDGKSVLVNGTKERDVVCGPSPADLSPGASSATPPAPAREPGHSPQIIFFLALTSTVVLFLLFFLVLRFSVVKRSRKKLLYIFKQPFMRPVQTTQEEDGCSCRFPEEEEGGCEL
Method: as §1, §2

Full-length Cyno OX40 [3] = target: T3, Full-length Cyno OX40 (cynomolgus monkey, UniProt P43489 29-277 (human entry)); assay: flow cytometry on CHOK1SV cells transfected with cynomolgus OX40, goat anti-human Fc secondary antibody, MFI (Mean)
T3 construct: on CHO-K1SV cells; also called OXF004; cynomolgus OX40
T3 chain: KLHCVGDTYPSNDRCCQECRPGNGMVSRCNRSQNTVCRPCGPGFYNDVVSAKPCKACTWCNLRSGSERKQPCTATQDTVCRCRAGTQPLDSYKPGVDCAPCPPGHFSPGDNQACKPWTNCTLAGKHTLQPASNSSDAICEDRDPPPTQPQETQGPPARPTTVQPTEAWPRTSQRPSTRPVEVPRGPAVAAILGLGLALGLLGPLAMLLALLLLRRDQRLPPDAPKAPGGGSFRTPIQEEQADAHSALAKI
Method: as §1, §2

Human OX40 ECD-AFH [4] = target: T4, Human OX40 ECD-AFH (human); assay: SPR, construct captured, monomeric ECD as analyte
T4 construct: ECD'; entry includes the C-terminal tags; also called OXF003; Human OX40 ECD-avi-flag-his
T4 chain: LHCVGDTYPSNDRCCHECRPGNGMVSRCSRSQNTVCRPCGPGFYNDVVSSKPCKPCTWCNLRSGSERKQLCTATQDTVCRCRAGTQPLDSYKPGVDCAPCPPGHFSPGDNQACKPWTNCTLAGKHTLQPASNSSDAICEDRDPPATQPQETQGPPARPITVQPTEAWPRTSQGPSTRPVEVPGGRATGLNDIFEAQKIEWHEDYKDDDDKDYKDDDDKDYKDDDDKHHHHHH
Method: (§3) Mouse anti-human IgG (GE, BR-1008-39) at 25 μg/ml in 10 mM sodium acetate pH 5.0 was immobilized at a density of ˜10,000 response units (RU) onto each flow cell of a CM5 research-grade sensor chip (GE) by standard amine coupling chemistry. Each binding protein at approximately 100 nM in HBS-EP+ with 0.2% BSA buffer was captured in a flow cell with the immobilized anti-human IgG at a flow rate of 10 μL/min for 20 seconds, leaving one flow cell surface unmodified as the reference. Using a single-cycle kinetics mode, five different concentrations of ECD were sequentially injected through each flow cell at 30 μL/min for 300 seconds followed by a 600 second dissociation period. Regeneration was achieved by injection of 3 M MgCl₂ at a flow rate of 30 μL/min for 30 seconds followed by HBS-EP+ with 0.2% BSA buffer stabilization for 1 min.
(§4) Sensorgrams obtained from kinetic SPR measurements were analyzed by the double subtraction method. The signal from the reference flow cell was subtracted from the analyte binding response obtained from flow cells with immobilized or captured ligands. Buffer reference responses were then averaged from multiple injections. The averaged buffer reference responses were then subtracted from analyte binding responses, and the final double-referenced data were analyzed with Biacore T200 Evaluation software (2.0, GE), globally fitting data to derive kinetic parameters. All sensorgrams were fitted using a simple one-to-one binding model.
(§5) Protein was produced by transient expression, purified by ProA chromatography and prep SEC.

Human 4-1BB ECD-AFH [5] = target: T5, Human 4-1BB ECD-AFH (human); assay: SPR, construct captured, monomeric ECD as analyte
T5 construct: entry includes the tags; also called FOB003; HUMAN CD137 ECD-AVI-FLAG-HIS
Method: as §3, §4, §5

Full-length Human 4-1BB [6] = target: T1, Full-length Human 4-1BB; assay: cell-based or functional assay
Full-length Human OX40 [7] = target: T6, Full-length Human OX40 (human, UniProt P43489 29-277); assay: cell-based or functional assay
T6 sequence: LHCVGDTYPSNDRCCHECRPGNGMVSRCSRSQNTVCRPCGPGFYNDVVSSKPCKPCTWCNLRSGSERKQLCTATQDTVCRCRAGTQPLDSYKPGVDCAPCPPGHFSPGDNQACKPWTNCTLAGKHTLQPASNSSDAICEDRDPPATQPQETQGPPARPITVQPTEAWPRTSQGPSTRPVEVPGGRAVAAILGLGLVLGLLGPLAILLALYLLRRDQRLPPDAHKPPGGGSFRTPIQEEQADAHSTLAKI

Full-length Human OX40 [8] = target: T6, Full-length Human OX40; assay: flow cytometry, CHO cells expressing human OX40
Method: as §1, §2

Full-length Cyno OX40 [9] = target: T3, Full-length Cyno OX40; assay: flow cytometry on CHOK1SV cells transfected with cynomolgus OX40, goat anti-human Fc secondary antibody, MFI (Mean)
Method: (§6) Serial dilutions of ADAPTIR™ constructs were incubated with transfected target cells and subsequently labelled with a fluorescently-conjugated goat-a-human Fc secondary antibody. […] (See Example 25.)

Cyno 4-1BB ECD-AFH = target: T7, Cyno 4-1BB ECD-AFH (cynomolgus monkey); assay: SPR (Biacore 8K), construct captured, monovalent ECD
T7 construct: entry includes the tags; also called FOB004; Cyno CD137 ECD-avi-flag-his
T7 chain: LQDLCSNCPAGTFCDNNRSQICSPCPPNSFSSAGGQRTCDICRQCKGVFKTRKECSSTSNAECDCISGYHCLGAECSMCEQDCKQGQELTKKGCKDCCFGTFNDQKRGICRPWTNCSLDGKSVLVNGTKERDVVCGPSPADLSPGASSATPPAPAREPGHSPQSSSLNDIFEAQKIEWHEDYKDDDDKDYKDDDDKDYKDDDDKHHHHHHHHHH
Method: as §3, §4
(§7) Using the BIACORE 8K SPR system, the affinity of these constructs for human and cyno 4-1BB, and human and cyno OX40 ECD, were determined using the methods described above. Monovalent binding affinity was determined by capturing the ADAPTIR™ bispecific construct on the chip and injecting monovalent ECD of the target at multiple concentrations.

Cyno OX40-AFH = target: T8, Cyno OX40-AFH (cynomolgus monkey); assay: as above
T8 construct: entry includes the tags; also called OXF005; cyno OX40 ECD
T8 chain: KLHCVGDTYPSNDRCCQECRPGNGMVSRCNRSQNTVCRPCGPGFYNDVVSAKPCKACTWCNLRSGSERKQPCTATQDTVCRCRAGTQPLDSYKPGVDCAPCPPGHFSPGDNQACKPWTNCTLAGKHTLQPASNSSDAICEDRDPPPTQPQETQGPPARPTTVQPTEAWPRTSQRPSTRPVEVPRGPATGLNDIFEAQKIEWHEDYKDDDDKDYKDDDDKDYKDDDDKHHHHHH
Method: as §3, §4, §7

Human OX40 ECD-AFH [10] = target: T4, Human OX40 ECD-AFH; assay: as above
Method: as §3, §4, §7

Human 4-1BB ECD-AFH [11] = target: T5, Human 4-1BB ECD-AFH; assay: as above
Method: as §3, §4, §7

Full-length Cyno 4-1BB [12] = target: T2, Full-length Cyno 4-1BB; assay: flow cytometry on Jurkat cells transfected with cynomolgus 4-1BB, goat anti-human Fc secondary antibody, MFI (Mean)
Method: as §6

Full-length Human 4-1BB [13] = target: T1, Full-length Human 4-1BB; assay: cell-based or functional assay; remark: listed apart in the source
Full-length Human OX40 [14] = target: T6, Full-length Human OX40; assay: cell-based or functional assay; remark: listed apart in the source

B1: FXX01099 (bispecific antibody)
chain: EVQLVQSGAEVKKPGASVKVSCKASGYTFTSYWMNWVRQAPGQGLEWMGNIYPSGGSTNYAQKFQGRVTMTVDTSTSTVYMELSSLRSEDTAVYYCASFSDGYYAYAMDYWGQGTLVTVSSGGGGSGGGGSGGGGSGGGGSEIVMTQSPATLSLSPGERATLSCRASQSVSSYLNWYQQKPGQAPRLLIYYASRRHTGIPARFSGSGSGTDFTLTISSLQPEDFAVYYCQQGYNLPYTFGQGTKVEIKEPKSSDKTHTCPPCPAPPAAAPSVFLFPPKPKDTLMISRTPEVTCVVVDVSHEDPEVKFNWYVDGVEVHNAKTKPREEQYNSTYRVVSVLTVLHQDWLNGKEYKCAVSNKALPAPIEKTISKAKGQPREPQVYTLPPSRDELTKNQVSLTCLVKGFYPSDIAVEWESNGQPENNYKTTPPVLDSDGSFFLYSKLTVDKSRWQQGNVFSCSVMHEALHNHYTQKSLSLSPGGGGSPSSYVLTQPPSVSVAPGKTARITCGGNNIGSKSVNWFQQKPGQAPVLVVYDDSGRPSGIPERFSGSTSGNTATLTISRVEAGDEADYYCQVWDSSSDHVVFGGGTKLTVLGGGGSGGGGSGGGGSGGGGSQVQLVESGGGVVQPGRSLRLSCAASGFTLSYYGMHWVRQAPGKGLEWVAAISHDGSDKYYADSVKGRFTISRDNSKNTLYLQMNSLRAEDTAVYYCSNDQFDPWGQGTLVTVSSR
notes: ADAPTIR anti-4-1BB (HL) x anti-OX40 with Q17K; also called FX01099
EC50 (Full-length Human 4-1BB [1]): 0.25 nM | max MFI (Full-length Human 4-1BB [1]): 4900 MFI | EC50 (read off the curve) (Full-length Cyno 4-1BB [2]): ~0.3 nM | EC50 (read off the curve) (Full-length Cyno OX40 [3]): ~0.8 nM | Kd (Human OX40 ECD-AFH [4]): 0.4 nM | koff (Human OX40 ECD-AFH [4]): 0.00028 s⁻¹ | kon (Human OX40 ECD-AFH [4]): 770000 M⁻¹ s⁻¹ | Kd (Human 4-1BB ECD-AFH [5]): 14 nM | koff (Human 4-1BB ECD-AFH [5]): 0.0046 s⁻¹ | kon (Human 4-1BB ECD-AFH [5]): 330000 M⁻¹ s⁻¹ | 4-1BB Reporter Assay EC50 (Full-length Human 4-1BB [6]): 0.017 nM | 4-1BB Reporter Assay Max induction (Full-length Human 4-1BB [6]): 6.65e+06 | OX40 Reporter Assay EC50 (Full-length Human OX40 [7]): 0.01 nM | OX40 Reporter Assay Max induction (Full-length Human OX40 [7]): 1.93e+06 | EC50 (Full-length Human OX40 [8]): 0.36 nM | max MFI (Full-length Human OX40 [8]): 10400 MFI

B2: FXX01120 (bispecific antibody)
chain: B1 chain with I541V, E543S, T690R
notes: ADAPTIR anti-4-1BB x anti-OX40, pI variant
EC50 (read off the curve) (Full-length Cyno OX40 [9]): 1 to 2 nM | Kd (Cyno 4-1BB ECD-AFH): 77 nM | koff (Cyno 4-1BB ECD-AFH): 0.0075 s⁻¹ | kon (Cyno 4-1BB ECD-AFH): 97000 M⁻¹ s⁻¹ | Kd (Cyno OX40-AFH): 0.2 nM | koff (Cyno OX40-AFH): 0.00023 s⁻¹ | kon (Cyno OX40-AFH): 950000 M⁻¹ s⁻¹ | Kd (Human OX40 ECD-AFH [10]): 0.4 nM | koff (Human OX40 ECD-AFH [10]): 0.00039 s⁻¹ | kon (Human OX40 ECD-AFH [10]): 1e+06 M⁻¹ s⁻¹ | Kd (Human 4-1BB ECD-AFH [11]): 18 nM | koff (Human 4-1BB ECD-AFH [11]): 0.0046 s⁻¹ | kon (Human 4-1BB ECD-AFH [11]): 260000 M⁻¹ s⁻¹ | EC50 (read off the curve) (Full-length Cyno 4-1BB [12]): ~0.3 nM | 4-1BB Reporter Assay EC50 (Full-length Human 4-1BB [13]): 0.015 nM | 4-1BB Reporter Assay Max induction (Full-length Human 4-1BB [13]): 1.38e+06 | OX40 Reporter Assay EC50 (Full-length Human OX40 [14]): 0.012 nM | OX40 Reporter Assay Max induction (Full-length Human OX40 [14]): 6.12e+06

B3: FXX01121 (bispecific antibody)
chain: B1 chain with E543K, T690R
notes: as for B2
EC50 (read off the curve) (Full-length Cyno OX40 [9]): 1 to 2 nM | Kd (Cyno 4-1BB ECD-AFH): 30 nM | koff (Cyno 4-1BB ECD-AFH): 0.013 s⁻¹ | kon (Cyno 4-1BB ECD-AFH): 420000 M⁻¹ s⁻¹ | Kd (Cyno OX40-AFH): 0.2 nM | koff (Cyno OX40-AFH): 0.00018 s⁻¹ | kon (Cyno OX40-AFH): 1e+06 M⁻¹ s⁻¹ | Kd (Human OX40 ECD-AFH [10]): 0.1 nM | koff (Human OX40 ECD-AFH [10]): 0.00013 s⁻¹ | kon (Human OX40 ECD-AFH [10]): 1.2e+06 M⁻¹ s⁻¹ | Kd (Human 4-1BB ECD-AFH [11]): 9 nM | koff (Human 4-1BB ECD-AFH [11]): 0.0036 s⁻¹ | kon (Human 4-1BB ECD-AFH [11]): 390000 M⁻¹ s⁻¹ | EC50 (read off the curve) (Full-length Cyno 4-1BB [12]): ~0.3 nM | 4-1BB Reporter Assay EC50 (Full-length Human 4-1BB [13]): 0.016 nM | 4-1BB Reporter Assay Max induction (Full-length Human 4-1BB [13]): 1.43e+06 | OX40 Reporter Assay EC50 (Full-length Human OX40 [14]): 0.016 nM | OX40 Reporter Assay Max induction (Full-length Human OX40 [14]): 6.19e+06
